In PMC10781510:

Molecular target: HIS-MBP-GASZ-ΔMLS (mouse)
Assay: native gel or EMSA; native PAGE of gel-filtration fraction 5, non-reducing and non-denaturing sample buffer (50 mM Tris pH 7.6, 100 mM NaCl, 0.01% DDM), with or without 2% SDS in the loading buffer, Coomassie blue; monomer to dimer

stoichiometry N: 2
Substance: HIS-MBP-GASZ-ΔMLS (domain or fragment)
